Positions of bridges follow the written chain, without caps; N, C: chain ends. Non-standard residues stand in square brackets, D forms with d. *: point of attachment. S5 = C=CCCC[C@](C)(N)C(=O)O; Nle = CCCC[C@H](N)C(=O)O; For = O=C*

The results in this text go back to US20140179593A1 (published 2014).

For assay [1], the target named is T1, hDcn1^P (residues 62 to the C-terminal residue 259 of hDcn1, aka SCCRO or DCUN1D1) (Homo sapiens, UniProt Q96GG9 62-259).
T1 construct: Expressed as a GST fusion in E. coli; GST released by TEV protease; also called DCUN1D1^P; PONY domain of hDcn1
The experiment in a line: ITC, peptide titrated into Dcn1^P; against the unacetylated peptide. As to the method: (§1) To gain insights into mechanistic roles of Ubc12 N-terminal acetylation, isothermal titration calorimetry (ITC) was used to quantify interactions with peptides corresponding to the N-termini of yeast or human Ubc12.
(§2) Protein samples were buffer matched by desalting over a NAP-5 column (GE Healthcare) into 50 mM Hepes, 125 mM NaCl, 1 mM BME, pH 7.0 (ITC buffer). Peptides were dissolved by weight to a final concentration of 10 mM in ITC buffer and diluted further in ITC buffer as required for the experiments. […] The peptide ligands (4 mM) were constantly injected (1.5 μl). The interval time between each injection was 3 minutes and the duration of each injection was 3 seconds. […] Peptide ligands (250 μM) were constantly injected (2.5 μl). The interval time between each injection was three minutes and the duration of each injection was 5 seconds. […] The interval time between each injection was 3 minutes and the duration of each injection was 5 seconds. Obtained spectra were evaluated using Origin (V 7.0) to determine heats of binding and Kd values.
Background: ITC needs no label: the signal is the heat of the interaction.

Assay [2] addresses T2, hDcn4^P (PONY domain of human DCUN1D4) (Homo sapiens, UniProt Q92564 102-292).
T2 sequence: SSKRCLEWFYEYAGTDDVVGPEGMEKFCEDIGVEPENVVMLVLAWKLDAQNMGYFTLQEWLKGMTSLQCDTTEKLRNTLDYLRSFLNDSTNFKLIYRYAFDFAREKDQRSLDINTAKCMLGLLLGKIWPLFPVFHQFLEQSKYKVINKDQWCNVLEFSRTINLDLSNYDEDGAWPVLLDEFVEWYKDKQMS
In words: ITC, peptide titrated into Dcn PONY domain. On the procedure:
as §2

Assay [3] concerns the target T3, hDcn3^P (PONY domain of human DCUN1D3) (Homo sapiens, UniProt Q8IWE4 86-304).
T3 sequence: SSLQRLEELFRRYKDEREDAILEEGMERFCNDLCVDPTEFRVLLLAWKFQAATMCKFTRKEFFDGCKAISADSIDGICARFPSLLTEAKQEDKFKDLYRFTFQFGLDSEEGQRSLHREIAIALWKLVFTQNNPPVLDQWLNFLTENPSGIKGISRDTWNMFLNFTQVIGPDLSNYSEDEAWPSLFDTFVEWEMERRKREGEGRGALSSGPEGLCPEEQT
The experiment in a line: ITC, peptide titrated into Dcn PONY domain. On the procedure: as §2

Assay [4] concerns the target T4, hDcn1^P (potentiating neddylation / PONY domain of human Dcn1, DCUN1D1) (Homo sapiens, UniProt Q96GG9 62-259).
T4 construct: also called DCUN1D1^P; SCCRO PONY domain
The experiment in a line: ITC, peptide titrated into Dcn PONY domain. On the procedure: as §2

Assay [5] deals with hDcn2^P (PONY domain of human DCUN1D2) (Homo sapiens, UniProt Q6PH85 62-259). The experiment in a line: ITC, peptide titrated into Dcn PONY domain. On the procedure: as §2
The target in assay [6] is T5, hDcn5^P (PONY domain of human DCUN1D5) (Homo sapiens, UniProt Q9BTE7 47-237).
T5 sequence: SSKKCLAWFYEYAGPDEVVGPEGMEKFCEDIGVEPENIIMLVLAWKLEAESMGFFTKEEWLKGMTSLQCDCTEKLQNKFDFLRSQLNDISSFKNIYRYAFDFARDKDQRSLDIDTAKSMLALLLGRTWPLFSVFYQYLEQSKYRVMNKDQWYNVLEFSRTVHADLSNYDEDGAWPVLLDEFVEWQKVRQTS
In words: ITC, peptide titrated into Dcn PONY domain. On the procedure:
as §2

Assay [7] addresses T1, hDcn1^P (residues 62 to the C-terminal …). In words: crystal structure. As to the method:
The crystals grew as multiple clusters. Single crystals of the complex were obtained by streak-seeding into 17% PEG1500, 0.1 M MIB pH 4.0. The crystals were soaked in step gradients for 1-5 minutes, with sequential soaks containing well solution supplemented with 10%, 20%, and 30% ethylene glycol prior to flash-freezing in liquid nitrogen. Reflection data were collected at beamline 8.2.2 at the Advanced Light Source.

The target of assay [8] is T2, hDcn4^P (PONY domain of human DCUN1D4). In words: ITC, two values in the cell, second value. On the procedure:
as §2

For assay [9] the target is unchanged. In words: ITC, two values in the cell, first value. On the procedure: as §2
Assay [10] concerns the target T6, yDcn1^P (potentiating neddylation / PONY domain of Saccharomyces cerevisiae Dcn1) (Saccharomyces cerevisiae, UniProt Q12395 70-269).
T6 construct: NEDD8 co-E3; Expressed in E. coli
T6 sequence: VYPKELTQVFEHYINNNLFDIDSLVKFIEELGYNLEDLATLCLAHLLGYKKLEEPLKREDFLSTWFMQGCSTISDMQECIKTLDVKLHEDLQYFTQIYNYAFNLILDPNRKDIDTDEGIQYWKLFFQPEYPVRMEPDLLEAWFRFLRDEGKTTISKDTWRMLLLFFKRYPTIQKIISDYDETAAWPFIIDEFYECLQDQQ
In words: ITC, peptide titrated into yDcn1^P. On the procedure: (§3) The formylated peptides lack the methyl portion of an acetyl, but retain the amide and are uncharged.
as §2

For assay [11], the target named is T1, hDcn1^P (residues 62 to the C-terminal …). In words: ITC; against Acetyl-hUbc12^1-26. On the procedure:
as §3, §2

The target in assay [12] is T7, hDcn1^P (PONY domain of human Dcn1 / DCUN1D1 / SCCRO, residues 62 to 259) (Homo sapiens, UniProt Q96GG9 62-259).
T7 construct: NEDD8 co-E3; Expressed as a GST fusion in E. coli; GST was removed with TEV protease; also called DCUN1D1^P
The experiment in a line: ITC, peptide titrated into hDcn1^P. On the procedure:
as §3, §2

For assay [13], the target named is T8, yDcn1^P (potentiating neddylation (PONY) domain of S. cerevisiae Dcn1) (Saccharomyces cerevisiae, UniProt Q12395 70-269).
T8 construct: NEDD8 co-E3; Expressed in E. coli
T8 sequence: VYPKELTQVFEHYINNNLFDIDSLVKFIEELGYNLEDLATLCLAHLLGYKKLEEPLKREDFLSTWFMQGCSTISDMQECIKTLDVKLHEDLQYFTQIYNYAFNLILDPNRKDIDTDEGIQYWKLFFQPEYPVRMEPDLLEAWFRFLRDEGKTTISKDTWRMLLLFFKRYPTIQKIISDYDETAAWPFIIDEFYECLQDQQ
In words: ITC, peptide titrated into Dcn1^P; against the unacetylated peptide. As to the method: as §1, §2

hDcn2^P (PONY domain of human DCUN1D2), sequence (Q6PH85 62-259 limits assumed): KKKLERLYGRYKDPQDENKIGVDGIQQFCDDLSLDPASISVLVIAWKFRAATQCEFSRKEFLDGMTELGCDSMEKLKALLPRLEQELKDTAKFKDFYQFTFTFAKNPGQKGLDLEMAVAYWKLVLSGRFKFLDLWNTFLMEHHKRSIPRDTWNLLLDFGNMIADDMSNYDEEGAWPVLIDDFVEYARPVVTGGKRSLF
T4 sequence (Q96GG9 62-259): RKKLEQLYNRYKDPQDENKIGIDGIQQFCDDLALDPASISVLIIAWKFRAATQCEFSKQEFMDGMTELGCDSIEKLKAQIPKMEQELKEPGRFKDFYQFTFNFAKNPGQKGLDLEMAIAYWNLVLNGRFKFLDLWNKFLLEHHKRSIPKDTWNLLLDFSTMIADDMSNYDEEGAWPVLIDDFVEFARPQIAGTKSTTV
T7 sequence (Q96GG9 62-259): as above
T1 sequence (Q96GG9 62-259): as above

B1: Acetyl-hUbc12^1-26 (peptide)
peptide: Ac-MIKLFSLKQQKKEEESAGGTKGSSKK-NH2
notes: Synthetic peptide; also called hUbc12Ac1-26
On to B1, for which the “increase in affinity by N-terminal acetylation” value in assay [1] is about 100 fold.

B2: yUbc12^Ac1-12 (NorLeu) 6, 10 (peptide)
peptide: Ac-[Nle]LKLR[S5]LQK[S5]KQ-NH2
modifications: staple 6-10
SMILES: CCCC[C@H](NC(C)=O)C(=O)N[C@@H](CC(C)C)C(=O)N[C@@H](CCCCN)C(=O)N[C@@H](CC(C)C)C(=O)N[C@@H](CCCNC(=N)N)C(=O)N[C@@]1(C)CCCC=CCCC[C@@](C)(C(=O)N[C@@H](CCCCN)C(=O)N[C@@H](CCC(N)=O)C(N)=O)NC(=O)[C@H](CCCCN)NC(=O)[C@H](CCC(N)=O)NC(=O)[C@H](CC(C)C)NC1=O
By Kd is commonly meant the concentration at which binding is half-saturated. Turning to B2, the Kd in [2] came to 4.3 µM; in [3] it was 1.76 µM; in assay [4] it was 0.068 µM; in assay [5], 0.075 µM; in assay [6] it was 4.78 µM.

B3: Acetyl-hUbc12^1-15 (peptide)
peptide: Ac-MIKLFSLKQQKKEEE-NH2
notes: Peptide of the hCul1^WHB-hDcn1^P-Acetyl-hUbc12^1-15 crystal structure; also called N-terminally acetylated human Ubc12^1-15
B3: the binding result in assay [7] is recorded as “binds”.

B4: yUbc12^Ac1-24 (peptide)
peptide: Ac-MLKLRQLQKKKQKENENSSSIQPN-NH2
notes: Synthetic peptide of the N-terminus of yeast Ubc12; also called Acetyl-yUbc12^1-24
With B4, the dissociation constant Kd stood at 13 µM in assay [8]; 3.4 µM in [3]; 0.311 µM in [4]; 0.204 µM in assay [5]; 2.4 µM in assay [6]; 1.2 µM in assay [9].

B5: hUbc12^Ac1-12 (peptide)
peptide: Ac-MIKLFSLKQQKK-NH2
notes: also called Acetyl-hUbc12^1-12
For B5, the Kd amounted to 13.1 µM in assay [2] and 6.3 µM in assay [3].

B6: hUbc12^Ac1-26 (peptide)
peptide: Ac-MIKLFSLKQQKKEEESAGGTKGSSKK-NH2
notes: Synthetic peptide of the N-terminus of human Ubc12; also called Acetyl-hUbc12^1-26
As to B6, the dissociation constant (Kd) amounted to 10 µM in assay [2]; 10.8 µM in assay [3]; 1.5 µM in [4]; 0.735 µM in assay [5]; 8.6 µM in [6].

B7: Formyl-yUbc12^1-24 peptide (peptide)
peptide: For-MLKLRQLQKKKQKENENSSSIQPN-NH2
SMILES: CC[C@H](C)[C@H](NC(=O)[C@H](CO)NC(=O)[C@H](CO)NC(=O)[C@H](CO)NC(=O)[C@H](CC(N)=O)NC(=O)[C@H](CCC(=O)O)NC(=O)[C@H](CC(N)=O)NC(=O)[C@H](CCC(=O)O)NC(=O)[C@H](CCCCN)NC(=O)[C@H](CCC(N)=O)NC(=O)[C@H](CCCCN)NC(=O)[C@H](CCCCN)NC(=O)[C@H](CCCCN)NC(=O)[C@H](CCC(N)=O)NC(=O)[C@H](CC(C)C)NC(=O)[C@H](CCC(N)=O)NC(=O)[C@H](CCCNC(=N)N)NC(=O)[C@H](CC(C)C)NC(=O)[C@H](CCCCN)NC(=O)[C@H](CC(C)C)NC(=O)[C@H](CCSC)NC=O)C(=O)N[C@@H](CCC(N)=O)C(=O)N1CCC[C@H]1C(=O)N[C@@H](CC(N)=O)C(N)=O
notes: Synthetic peptide
As for B7, in assay [10], the Kd was determined as 7.46 µM, the ΔH was 2.82 kcal/mol and the ΔS was determined as 33.4 cal/mol/deg.

B8: Formyl-hUbc12^1-26 (peptide)
peptide: For-MIKLFSLKQQKKEEESAGGTKGSSKK-NH2
SMILES: CC[C@H](C)[C@H](NC(=O)[C@H](CCSC)NC=O)C(=O)N[C@@H](CCCCN)C(=O)N[C@@H](CC(C)C)C(=O)N[C@@H](Cc1ccccc1)C(=O)N[C@@H](CO)C(=O)N[C@@H](CC(C)C)C(=O)N[C@@H](CCCCN)C(=O)N[C@@H](CCC(N)=O)C(=O)N[C@@H](CCC(N)=O)C(=O)N[C@@H](CCCCN)C(=O)N[C@@H](CCCCN)C(=O)N[C@@H](CCC(=O)O)C(=O)N[C@@H](CCC(=O)O)C(=O)N[C@@H](CCC(=O)O)C(=O)N[C@@H](CO)C(=O)N[C@@H](C)C(=O)NCC(=O)NCC(=O)N[C@H](C(=O)N[C@@H](CCCCN)C(=O)NCC(=O)N[C@@H](CO)C(=O)N[C@@H](CO)C(=O)N[C@@H](CCCCN)C(=O)N[C@@H](CCCCN)C(N)=O)[C@@H](C)O
notes: Synthetic peptide; also called N-terminally formylated human Ubc12 peptide; hUbc12^Formyl-1-26
As for B8, in assay [11], the “fold change of Kd against the acetylated peptide” value was about 9 fold.

B9: Formyl-hUbc12^1-26 peptide (peptide)
peptide: For-MIKLFSLKQQKKEEESAGGTKGSSKK-NH2
SMILES: CC[C@H](C)[C@H](NC(=O)[C@H](CCSC)NC=O)C(=O)N[C@@H](CCCCN)C(=O)N[C@@H](CC(C)C)C(=O)N[C@@H](Cc1ccccc1)C(=O)N[C@@H](CO)C(=O)N[C@@H](CC(C)C)C(=O)N[C@@H](CCCCN)C(=O)N[C@@H](CCC(N)=O)C(=O)N[C@@H](CCC(N)=O)C(=O)N[C@@H](CCCCN)C(=O)N[C@@H](CCCCN)C(=O)N[C@@H](CCC(=O)O)C(=O)N[C@@H](CCC(=O)O)C(=O)N[C@@H](CCC(=O)O)C(=O)N[C@@H](CO)C(=O)N[C@@H](C)C(=O)NCC(=O)NCC(=O)N[C@H](C(=O)N[C@@H](CCCCN)C(=O)NCC(=O)N[C@@H](CO)C(=O)N[C@@H](CO)C(=O)N[C@@H](CCCCN)C(=O)N[C@@H](CCCCN)C(N)=O)[C@@H](C)O
notes: Synthetic peptide; also called hUbc12^Formyl-1-26
In assay [12], B9 came in with a Kd of 9.71 µM, a ΔH of -4.89 kcal/mol and a ΔS of 5.79 cal/mol/deg.

B10: Acetyl-yUbc12^1-24 (peptide)
peptide: Ac-MLKLRQLQKKKQKENENSSSIQPN-NH2
notes: Synthetic peptide; also called yUbc12Ac1-24; N-terminally acetylated S. cerevisiae Ubc12^1-24
Turning to B10, the “increase in affinity by N-terminal acetylation” value in assay [13] was about 100 fold.
